This assay relates to ERK-1/2. Briefly: ERK-1/2 phosphorylation in COS-7/M6 stable transformants (Western blot). The class given is cell-based. The following applies: 100 ng/ml. (In general: A western blot detects proteins with antibodies after separation by electrophoresis.)

B1: MIF: macrophage migration inhibitory factor; recombinant mouse or human MIF purified essentially free of endotoxin (protein)
chain: PMFIVNTNVPRASVPDGFLSELTQQLAQATGKPPQYIAVHVVPDQLMAFGGSSEPCALCSLHSIGKIGGAQNRSYSKLLCGLLAERLRISPDRVYINYYDMNAANVGWNNSTFA
As for B1, the “time of decay of ERK-1/2 phosphorylation” value was 30 min. The ERK-1/2 phosphorylation entry (cells transfected with CD74, CD44, CD74+CD44 or CD74+CD44^Δ67) is “induced ERK-1/2 phosphorylation only in those cells expressing both CD74 and full-length CD44”.

For the origin of these results see US20100143379A1 (priority 2005, published 2010).
